Experimental data reported in patent publication US20190175744A1 (Merck Sharp & Dohme, published 2019).
Starred links: 1 amine or outer side, 2 acyl side, 3 side chain; linkers in the order of their positions; H or OH if unused. Non-standard residues stand in square brackets, D forms with d. Groups on a side chain read outwards from the residue. No end group written: not given here. *: point of attachment. C16N3 = 16-azido-hexadecanoic acid, [N-]=[N+]=NCCCCCCCCCCCCCCCC(=O)*; C5N3 = 5-azido pentinoic acid, [N-]=[N+]=NCCCCC(=O)*; C18 diacid = O=C(O)CCCCCCCCCCCCCCCCC(=O)*; Lys(N3) = [N-]=[N+]=NCCCC[C@H](N)C(=O)O; γGlu = O=C(O)[C@H](CCC(=O)[*:2])N[*:1]; Met(O2) = CS(=O)(=O)CC[C@H](N)C(=O)O; Palmitoyl = CCCCCCCCCCCCCCCC(=O)*; AEEA = NCCOCCOCC(=O)O; Aib = CC(C)(N)C(=O)O

Assays:
human glucagon receptor = human glucagon receptor (human, UniProt P47871 26-477); experiment: cell-based or functional assay
human GLP-1 receptor = human GLP-1 receptor (human, UniProt P43220 24-463); experiment: cell-based or functional assay

| Binder | hGCGR_EC50 (cAMP activity assay) (human glucagon receptor) [nM] | hGLP1R EC50 (cAMP activity assay) (human GLP-1 receptor) [nM] |
| --- | --- | --- |
| H[Aib]QGTFTSDK([γGlu-γGlu-Palmitoyl])SKYLDERAAQDFV[Lys(N3)]WLLDGRG-NH2 [PEP2] | 0.11 | – |
| H[dS]QGTFTSDK([γGlu-γGlu-Palmitoyl])SKYLDERAAQ[Lys(N3)]FVQWLLDT-NH2 [PEP1] | 0.01 | – |
| H[dS]QGTFTSDK([γGlu-γGlu-Palmitoyl])SKYLDERAAK([AEEA-AEEA-C5N3])DFVQWLLDT-NH2 [PEP17] | 0.06 | 0.05 |
| HXQGTFTSDKSKYLDERAAQDFVXWLLXT (D-Ser (s) at 2; Lys 10 K(γEγEC16); Nle(εN3) at 24; γE at 28; C-terminal amide) [PEP11] | – | 0.06 |
| H[Aib]QGTFTSDYSKYLD[Aib]RAAQDFVQWLLDTKK([AEEA-AEEA-γGlu-C16N3])-NH2 (N-terminus assumed; SMILES CC(C)C[C@H](NC(=O)[C@H](Cc1c[nH]c2ccccc12)NC(=O)[C@H](CCC(N)=O)NC(=O)[C@@H](NC(=O)[C@H](Cc1ccccc1)NC(=O)[C@H](CC(=O)O)NC(=O)[C@H](CCC(N)=O)NC(=O)[C@H](C)NC(=O)[C@H](C)NC(=O)[C@H](CCCNC(=N)N)NC(=O)C(C)(C)NC(=O)[C@H](CC(=O)O)NC(=O)[C@H](CC(C)C)NC(=O)[C@H](Cc1ccc(O)cc1)NC(=O)[C@H](CCCCN)NC(=O)[C@H](CO)NC(=O)[C@H](Cc1ccc(O)cc1)NC(=O)[C@H](CC(=O)O)NC(=O)[C@H](CO)NC(=O)[C@@H](NC(=O)[C@H](Cc1ccccc1)NC(=O)[C@@H](NC(=O)CNC(=O)[C@H](CCC(N)=O)NC(=O)C(C)(C)NC(=O)[C@@H](N)Cc1c[nH]cn1)[C@@H](C)O)[C@@H](C)O)C(C)C)C(=O)N[C@@H](CC(C)C)C(=O)N[C@@H](CC(=O)O)C(=O)N[C@H](C(=O)N[C@@H](CCCCN)C(=O)N[C@@H](CCCCNC(=O)COCCOCCNC(=O)COCCOCCNC(=O)CC[C@H](NC(=O)CCCCCCCCCCCCCCCN=[N+]=[N-])C(=O)O)C(N)=O)[C@@H](C)O) [PEP28] | 0.17 | 0.16 |
| HXQGTFTSDKSKYLDXRAAQDFVQWLLDTKK (Aib (U) at 2 and 16; Lys 10 K(γEγEC16); Lys 31 K(PEG2PEG2-C5N3); C-terminal amide) [PEP21] | 0.08 | 0.07 |
| H[Aib]QGTFTSDK([γGlu-γGlu-Palmitoyl])SKYLD[Aib]RAAQDFV[Lys(N3)]WLLDTK[γGlu]-NH2 (N-terminus assumed; SMILES CCCCCCCCCCCCCCCC(=O)N[C@@H](CCC(=O)N[C@@H](CCC(=O)NCCCC[C@H](NC(=O)[C@H](CC(=O)O)NC(=O)[C@H](CO)NC(=O)[C@@H](NC(=O)[C@H](Cc1ccccc1)NC(=O)[C@@H](NC(=O)CNC(=O)[C@H](CCC(N)=O)NC(=O)C(C)(C)NC(=O)[C@@H](N)Cc1c[nH]cn1)[C@@H](C)O)[C@@H](C)O)C(=O)N[C@@H](CO)C(=O)N[C@@H](CCCCN)C(=O)N[C@@H](Cc1ccc(O)cc1)C(=O)N[C@@H](CC(C)C)C(=O)N[C@@H](CC(=O)O)C(=O)NC(C)(C)C(=O)N[C@@H](CCCNC(=N)N)C(=O)N[C@@H](C)C(=O)N[C@@H](C)C(=O)N[C@@H](CCC(N)=O)C(=O)N[C@@H](CC(=O)O)C(=O)N[C@@H](Cc1ccccc1)C(=O)N[C@H](C(=O)N[C@@H](CCCCN=[N+]=[N-])C(=O)N[C@@H](Cc1c[nH]c2ccccc12)C(=O)N[C@@H](CC(C)C)C(=O)N[C@@H](CC(C)C)C(=O)N[C@@H](CC(=O)O)C(=O)N[C@H](C(=O)N[C@@H](CCCCN)C(=O)N[C@@H](CCC(N)=O)C(=O)O)[C@@H](C)O)C(C)C)C(=O)O)C(=O)O) [PEP22] | – | 0.07 |
| H[dS]QGTFTSDK([γGlu-γGlu-Palmitoyl])SKYLDSRRAHDFV[Lys(N3)]WLLNT-NH2 (N-terminus assumed; SMILES CCCCCCCCCCCCCCCC(=O)N[C@@H](CCC(=O)N[C@@H](CCC(=O)NCCCC[C@H](NC(=O)[C@H](CC(=O)O)NC(=O)[C@H](CO)NC(=O)[C@@H](NC(=O)[C@H](Cc1ccccc1)NC(=O)[C@@H](NC(=O)CNC(=O)[C@H](CCC(N)=O)NC(=O)[C@@H](CO)NC(=O)[C@@H](N)Cc1c[nH]cn1)[C@@H](C)O)[C@@H](C)O)C(=O)N[C@@H](CO)C(=O)N[C@@H](CCCCN)C(=O)N[C@@H](Cc1ccc(O)cc1)C(=O)N[C@@H](CC(C)C)C(=O)N[C@@H](CC(=O)O)C(=O)N[C@@H](CO)C(=O)N[C@@H](CCCNC(=N)N)C(=O)N[C@@H](CCCNC(=N)N)C(=O)N[C@@H](C)C(=O)N[C@@H](Cc1c[nH]cn1)C(=O)N[C@@H](CC(=O)O)C(=O)N[C@@H](Cc1ccccc1)C(=O)N[C@H](C(=O)N[C@@H](CCCCN=[N+]=[N-])C(=O)N[C@@H](Cc1c[nH]c2ccccc12)C(=O)N[C@@H](CC(C)C)C(=O)N[C@@H](CC(C)C)C(=O)N[C@@H](CC(N)=O)C(=O)N[C@H](C(N)=O)[C@@H](C)O)C(C)C)C(=O)O)C(=O)O) [PEP13] | 0.04 | 0.1 |
| H[Aib]QGTFTSDK([γGlu-γGlu-Palmitoyl])SKYLD[Aib]RAAQDFVQWLLDTKK([AEEA-C5N3])-NH2 [PEP20] | 0.1 | 0.05 |
| HXQGTFTSDKSKYLDERAAQDFVXWLLDT (D-Ser (s) at 2; Lys 10 K(γEγEC16); Nle(εN3) at 24; C-terminal amide) [PEP74] | – | 0.05 |
| H[dS]QGTFTSDYSKYLDERAAQK([AEEA-AEEA-γGlu-C16N3])FVQWLLDT-NH2 (N-terminus assumed; SMILES CC(C)C[C@H](NC(=O)[C@H](Cc1ccc(O)cc1)NC(=O)[C@H](CCCCN)NC(=O)[C@H](CO)NC(=O)[C@H](Cc1ccc(O)cc1)NC(=O)[C@H](CC(=O)O)NC(=O)[C@H](CO)NC(=O)[C@@H](NC(=O)[C@H](Cc1ccccc1)NC(=O)[C@@H](NC(=O)CNC(=O)[C@H](CCC(N)=O)NC(=O)[C@@H](CO)NC(=O)[C@@H](N)Cc1c[nH]cn1)[C@@H](C)O)[C@@H](C)O)C(=O)N[C@@H](CC(=O)O)C(=O)N[C@@H](CCC(=O)O)C(=O)N[C@@H](CCCNC(=N)N)C(=O)N[C@@H](C)C(=O)N[C@@H](C)C(=O)N[C@@H](CCC(N)=O)C(=O)N[C@@H](CCCCNC(=O)COCCOCCNC(=O)COCCOCCNC(=O)CC[C@H](NC(=O)CCCCCCCCCCCCCCCN=[N+]=[N-])C(=O)O)C(=O)N[C@@H](Cc1ccccc1)C(=O)N[C@H](C(=O)N[C@@H](CCC(N)=O)C(=O)N[C@@H](Cc1c[nH]c2ccccc12)C(=O)N[C@@H](CC(C)C)C(=O)N[C@@H](CC(C)C)C(=O)N[C@@H](CC(=O)O)C(=O)N[C@H](C(N)=O)[C@@H](C)O)C(C)C) [PEP27] | 0.39 | 0.06 |
| HXQGTFTSDKSKYLDERAAQDFVKWLLDT (D-Ser (s) at 2; Lys 10 K(γEγEC16); Lys 24 K(PEG2-C5N3); C-terminal amide) [PEP14] | 0.05 | 0.07 |
| H[Aib]QGTFTSDK([γGlu-γGlu-Palmitoyl])SKYLD[Aib]RRAQDFVQWLLDT[Lys(N3)][γGlu]-NH2 (N-terminus assumed; SMILES CCCCCCCCCCCCCCCC(=O)N[C@@H](CCC(=O)N[C@@H](CCC(=O)NCCCC[C@H](NC(=O)[C@H](CC(=O)O)NC(=O)[C@H](CO)NC(=O)[C@@H](NC(=O)[C@H](Cc1ccccc1)NC(=O)[C@@H](NC(=O)CNC(=O)[C@H](CCC(N)=O)NC(=O)C(C)(C)NC(=O)[C@@H](N)Cc1c[nH]cn1)[C@@H](C)O)[C@@H](C)O)C(=O)N[C@@H](CO)C(=O)N[C@@H](CCCCN)C(=O)N[C@@H](Cc1ccc(O)cc1)C(=O)N[C@@H](CC(C)C)C(=O)N[C@@H](CC(=O)O)C(=O)NC(C)(C)C(=O)N[C@@H](CCCNC(=N)N)C(=O)N[C@@H](CCCNC(=N)N)C(=O)N[C@@H](C)C(=O)N[C@@H](CCC(N)=O)C(=O)N[C@@H](CC(=O)O)C(=O)N[C@@H](Cc1ccccc1)C(=O)N[C@H](C(=O)N[C@@H](CCC(N)=O)C(=O)N[C@@H](Cc1c[nH]c2ccccc12)C(=O)N[C@@H](CC(C)C)C(=O)N[C@@H](CC(C)C)C(=O)N[C@@H](CC(=O)O)C(=O)N[C@H](C(=O)N[C@@H](CCCCN=[N+]=[N-])C(=O)N[C@@H](CCC(N)=O)C(=O)O)[C@@H](C)O)C(C)C)C(=O)O)C(=O)O) [PEP6] | 0.07 | 0.17 |
| H[Aib]QGTFTSDK([γGlu-γGlu-Palmitoyl])SKYLD[Aib]RAAQDFV[Lys(N3)]WL[Met(O2)]KGRG-NH2 [PEP3] | 0.07 | – |
| HXQGTFTSDYSKYLDERAAQDFVKWLLDT (D-Ser (s) at 2; Lys 24 K(PEG2PEG2γE-C16N3); C-terminal amide) [PEP25] | 0.04 | 0.05 |
| H[dS]QGTFTSDYSKYLDERAAK([AEEA-AEEA-γGlu-C16N3])DFVQWLLDT-NH2 [PEP26] | 0.12 | 0.12 |
| HXQGTFTSDKSKYLDERAAQDFVXWLLDT (D-Ser (s) at 2; Lys 10 K(PEG2PEG2γEC18-OH); Nle(εN3) at 24; C-terminal amide) [PEP29] | 3.26 | 3.28 |
| H[dS]QGTFTSDK([γGlu-γGlu-Palmitoyl])SKYLDERAAK([AEEA-C5N3])DFVQWLLDT-NH2 [PEP16] | 0.05 | 0.06 |
| H[Aib]QGTFTSDYSKYLDARAAK([AEEA-AEEA-γGlu-C18 diacid])DFV[Lys(N3)]WL[Met(O2)]DT-NH2 [PEP30] | 2.27 | 0.5 |
